Results: US20220040297A1 (Chugai, published 2022)
Residue numbers refer to the chain shown, from its start.

B1: GLS3000 Q27D (antibody, name in Kabat numbering, V domains shown)
VH: QVQLVESGGGVVQPGRSLRLSCAASGFTFSNAWMHWVRQAPGKGLEWVAQIKAKSNNYATYYAESVKGRFTISRDDSKNSLYLQMNSLKTEDTAVYYCRYVHYGAYYGVDAWGQGTTVTVSS
VL: DIVMTQSPLSLPVTPGEPASISCRSSDSLVHSNRNTYLHWYQQKPGQAPRLLIYKVSNRFSGVPDRFSGSGSGTDFTLKISRVEAEDVGVYYCGQGTQVPYTFGQGTKLEIK
notes: one-arm format as m2
B2: GLS3000 R54A (antibody, name in Kabat numbering, V domains shown)
VH: B1 VH
VL: B1 VL with D27Q, R59A
notes: one-arm format as m2
B3: GLS3000 Q90Y (antibody, name in Kabat numbering, V domains shown)
VH: B1 VH
VL: B1 VL with D27Q, Q95Y
notes: one-arm format as m2
B4: GLS3000 R24A (antibody, name in Kabat numbering, V domains shown)
VH: B1 VH
VL: B1 VL with R24A, D27Q
notes: one-arm format as m2
B5: GLS3000 R24S (antibody, name in Kabat numbering, V domains shown)
VH: B1 VH
VL: B1 VL with R24S, D27Q
notes: one-arm format as m2
B6: GLS3000 Q90P (antibody, name in Kabat numbering, V domains shown)
VH: B1 VH
VL: B1 VL with D27Q, Q95P
notes: one-arm format as m2
B7: GLS3000 R29P (antibody, name in Kabat numbering, V domains shown)
VH: B1 VH
VL: B1 VL with D27Q, R34P
notes: one-arm format as m2
B8: GLS3000 Q90A (antibody, name in Kabat numbering, V domains shown)
VH: B1 VH
VL: B1 VL with D27Q, Q95A
notes: one-arm format as m2
B9: GLS3000 R29Y (antibody, name in Kabat numbering, V domains shown)
VH: B1 VH
VL: B1 VL with D27Q, R34Y
notes: one-arm format as m2
B10: GLS3000 Q93S (antibody, name in Kabat numbering, V domains shown)
VH: B1 VH
VL: B1 VL with D27Q, Q98S
notes: one-arm format as m2
B11: GLS3000 R29T (antibody, name in Kabat numbering, V domains shown)
VH: B1 VH
VL: B1 VL with D27Q, R34T
notes: one-arm format as m2
B12: GLS3000 R45D (antibody, name in Kabat numbering, V domains shown)
VH: B1 VH
VL: B1 VL with D27Q, R50D
notes: one-arm format as m2
B13: GLS3000 R29G (antibody, name in Kabat numbering, V domains shown)
VH: B1 VH
VL: B1 VL with D27Q, R34G
notes: one-arm format as m2
B14: GLS3000 Q93Y (antibody, name in Kabat numbering, V domains shown)
VH: B1 VH
VL: B1 VL with D27Q, Q98Y
notes: one-arm format as m2
B15: GLS3000 R29S (antibody, name in Kabat numbering, V domains shown)
VH: B1 VH
VL: B1 VL with D27Q, R34S
notes: one-arm format as m2
B16: GLS3000 R54Q (antibody, name in Kabat numbering, V domains shown)
VH: B1 VH
VL: B1 VL with D27Q, R59Q
notes: one-arm format as m2
B17: GLS3000 R45Q (antibody, name in Kabat numbering, V domains shown)
VH: B1 VH
VL: B1 VL with D27Q, R50Q
notes: one-arm format as m2
B18: GLS3000 R29A (antibody, name in Kabat numbering, V domains shown)
VH: B1 VH
VL: B1 VL with D27Q, R34A
notes: one-arm format as m2
B19: GLS3000 Q93P (antibody, name in Kabat numbering, V domains shown)
VH: B1 VH
VL: B1 VL with D27Q, Q98P
notes: one-arm format as m2
B20: GLS3000 Q93A (antibody, name in Kabat numbering, V domains shown)
VH: B1 VH
VL: B1 VL with D27Q, Q98A
notes: one-arm format as m2
B21: GLS3000 R54P (antibody, name in Kabat numbering, V domains shown)
VH: B1 VH
VL: B1 VL with D27Q, R59P
notes: one-arm format as m2
B22: GLS3000 Q93D (antibody, name in Kabat numbering, V domains shown)
VH: B1 VH
VL: B1 VL with D27Q, Q98D
notes: one-arm format as m2
B23: GLS3000 R24D (antibody, name in Kabat numbering, V domains shown)
VH: B1 VH
VL: B1 VL with R24D, D27Q
notes: one-arm format as m2
B24: GLS3000 Q27R (antibody, name in Kabat numbering, V domains shown)
VH: B1 VH
VL: B1 VL with D27R
notes: one-arm format as m2
B25: GLS3000 Q27E (antibody, name in Kabat numbering, V domains shown)
VH: B1 VH
VL: B1 VL with D27E
notes: one-arm format as m2
B26: GLS3000 Q93E (antibody, name in Kabat numbering, V domains shown)
VH: B1 VH
VL: B1 VL with D27Q, Q98E
notes: one-arm format as m2
B27: GLS3000 R24E (antibody, name in Kabat numbering, V domains shown)
VH: B1 VH
VL: B1 VL with R24E, D27Q
notes: one-arm format as m2
B28: GLS3000 R54E (antibody, name in Kabat numbering, V domains shown)
VH: B1 VH
VL: B1 VL with D27Q, R59E
notes: one-arm format as m2
B29: GLS3000 R24T (antibody, name in Kabat numbering, V domains shown)
VH: B1 VH
VL: B1 VL with R24T, D27Q
notes: one-arm format as m2
B30: GLS3000 Q90S (antibody, name in Kabat numbering, V domains shown)
VH: B1 VH
VL: B1 VL with D27Q, Q95S
notes: one-arm format as m2
B31: GLS3000 R24Q (antibody, name in Kabat numbering, V domains shown)
VH: B1 VH
VL: B1 VL with R24Q, D27Q
notes: one-arm format as m2
B32: GLS3000 R24P (antibody, name in Kabat numbering, V domains shown)
VH: B1 VH
VL: B1 VL with R24P, D27Q
notes: one-arm format as m2
B33: GLS3000 Q27P (antibody, name in Kabat numbering, V domains shown)
VH: B1 VH
VL: B1 VL with D27P
notes: one-arm format as m2
B34: GLS3000 Q90D (antibody, name in Kabat numbering, V domains shown)
VH: B1 VH
VL: B1 VL with D27Q, Q95D
notes: one-arm format as m2
B35: GLS3000 R24Y (antibody, name in Kabat numbering, V domains shown)
VH: B1 VH
VL: B1 VL with R24Y, D27Q
notes: one-arm format as m2
B36: GLS3000 R45E (antibody, name in Kabat numbering, V domains shown)
VH: B1 VH
VL: B1 VL with D27Q, R50E
notes: one-arm format as m2
B37: GLS3000 R29I (antibody, name in Kabat numbering, V domains shown)
VH: B1 VH
VL: B1 VL with D27Q, R34I
notes: one-arm format as m2
B38: GLS3000 Q90E (antibody, name in Kabat numbering, V domains shown)
VH: B1 VH
VL: B1 VL with D27Q, Q95E
notes: one-arm format as m2
B39: GLS3000 Q93R (antibody, name in Kabat numbering, V domains shown)
VH: B1 VH
VL: B1 VL with D27Q, Q98R
notes: one-arm format as m2
B40: GLS3000 R54G (antibody, name in Kabat numbering, V domains shown)
VH: B1 VH
VL: B1 VL with D27Q, R59G
notes: one-arm format as m2
B41: GLS3000 R24G (antibody, name in Kabat numbering, V domains shown)
VH: B1 VH
VL: B1 VL with R24G, D27Q
notes: one-arm format as m2
B42: GLS3000 Q27L (antibody, name in Kabat numbering, V domains shown)
VH: B1 VH
VL: B1 VL with D27L
notes: one-arm format as m2
B43: GLS3000 R54D (antibody, name in Kabat numbering, V domains shown)
VH: B1 VH
VL: B1 VL with D27Q, R59D
notes: one-arm format as m2
B44: GLS3000 R29V (antibody, name in Kabat numbering, V domains shown)
VH: B1 VH
VL: B1 VL with D27Q, R34V
notes: one-arm format as m2
B45: GLS3000 R29L (antibody, name in Kabat numbering, V domains shown)
VH: B1 VH
VL: B1 VL with D27Q, R34L
notes: one-arm format as m2
B46: GLS3000 R29D (antibody, name in Kabat numbering, V domains shown)
VH: B1 VH
VL: B1 VL with D27Q, R34D
notes: one-arm format as m2

Each binder was assayed against CD3ε homodimer protein (human, UniProt P07766 23-126, limits assumed) (assay: SPR, immobilized CD3ε homodimer;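 also: biacore T200 surface plasmon resonance at 25 °C, antibody variants flowed as analytes over amine-coupled CD3ε homodimer on a CM4 chip, variant binding amount divided by that of GLS3000 antibody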).
CD3ε homodimer protein, sequence (P07766 23-126 limits assumed): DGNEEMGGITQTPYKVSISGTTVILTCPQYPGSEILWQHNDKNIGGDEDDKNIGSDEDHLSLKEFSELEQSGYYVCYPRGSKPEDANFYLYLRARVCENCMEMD

Row | ratio of amounts bound (vs GLS3000) | Binder
1 | 0.85 | B1
2 | 0.69 | B2
3 | 0.17 | B3
4 | 0.86 | B4
5 | 0.89 | B5
6 | 0.27 | B6
7 | 0.31 | B7
8 | 0.5 | B8
9 | 0.69 | B9
10 | 0.96 | B10
11 | 0.63 | B11
12 | 0.77 | B12
13 | 0.67 | B13
14 | 0.87 | B14
15 | 0.68 | B15
16 | 0.68 | B16
17 | 0.86 | B17
18 | 0.63 | B18
19 | 0.25 | B19
20 | 0.85 | B20
21 | 0.84 | B21
22 | 0.72 | B22
23 | 0.75 | B23

Row | ratio of amounts bound (vs GLS3000) | Binder
24 | 1.19 | B24
25 | 0.88 | B25
26 | 0.75 | B26
27 | 0.83 | B27
28 | 0.58 | B28
29 | 0.88 | B29
30 | 0.73 | B30
31 | 0.9 | B31
32 | 0.7 | B32
33 | 0.29 | B33
34 | 0.19 | B34
35 | 0.87 | B35
36 | 0.75 | B36
37 | 0.37 | B37
38 | 0.85 | B38
39 | 1.13 | B39
40 | 0.67 | B40
41 | 0.89 | B41
42 | 0.92 | B42
43 | 0.36 | B43
44 | 0.34 | B44
45 | 0.56 | B45
46 | 0.41 | B46
